Measured values as given in paper PMC7458312, “Anthrax toxin component, Protective Antigen, protects insects from bacterial infections” (PLoS Pathogens, 2020).

Tests used:
[1] = molecular target: T1, human recombinant PGRP-S (also called PGLYRP1) (human, UniProt O75594 22-196); experiment: ELISA; […]) or 5% BSA ([…]; settings: both partners purified
T1 construct: also called PRGP-S; human PGRP-SA ortholog
T1 sequence (looked up): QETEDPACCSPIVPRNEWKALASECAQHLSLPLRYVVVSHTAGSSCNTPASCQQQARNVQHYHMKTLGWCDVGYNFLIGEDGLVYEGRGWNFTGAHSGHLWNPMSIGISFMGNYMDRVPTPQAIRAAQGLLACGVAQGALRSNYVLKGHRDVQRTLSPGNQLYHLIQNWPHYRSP

[2] = molecular target: T2, Drosophila melanogaster peptidoglycan-recognition protein-SA (PGRP-SA), T7-tagged (D. melanogaster, UniProt Q9VYX7 27-203); experiment: ELISA; […]) or 5% BSA ([…]; settings: both partners purified
T2 construct: also called PRGP-SA
T2 sequence (looked up): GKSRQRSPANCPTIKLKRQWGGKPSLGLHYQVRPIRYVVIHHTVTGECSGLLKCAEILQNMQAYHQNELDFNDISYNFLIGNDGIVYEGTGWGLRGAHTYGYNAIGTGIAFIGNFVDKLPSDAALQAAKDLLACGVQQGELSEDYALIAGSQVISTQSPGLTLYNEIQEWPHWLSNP

B1: PA20, 20 kDa subunit of anthrax toxin Protective Antigen (PA83) (domain or fragment)
chain: EVKQENRLLNESESSSQGLLGYYFSDLNFQAPMVVTSSTTGDLSIPSSELENIPSENQYFQSAIWSGFIKVKKSDEYTFATSADNHVTMWVDDQEVINKASNSNKIRLEKGRLYQIKIQYQRENPTEKGLDFKLYWTDSQNKKEVISSDNLQLPELKQKSSNS
notes: also called pelB-PA20-6His
binding result [1]: binds | binding result [2]: binds
